Assay results as given in publication PMC9482650, “Quantitative fragmentomics allow affinity mapping of interactomes” (Nature Communications, 2022).

How the values were obtained:
Assay in all cases: holdup assay
Design in all cases: key: below the threshold = too weak to quantify, mostly under pKd 3.1 to 4
Conditions in all cases: plain residues with an end cap or a label only (N-terminal biotin on a linker: ado-ado)
APBA3_1, O96018 = target: T1, APBA3_1, O96018
T1 sequence (O96018 389-490, limits assumed, looked up): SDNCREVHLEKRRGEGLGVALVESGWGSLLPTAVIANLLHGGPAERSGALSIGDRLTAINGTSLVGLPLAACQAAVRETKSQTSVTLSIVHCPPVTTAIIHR

CARD11, Q9BXL7 = target: T2, CARD11, Q9BXL7
T2 sequence (Q9BXL7 662-765, limits assumed, looked up): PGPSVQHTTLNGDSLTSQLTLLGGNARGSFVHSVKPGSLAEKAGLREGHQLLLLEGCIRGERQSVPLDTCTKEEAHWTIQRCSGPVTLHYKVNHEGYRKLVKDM

DFNB31_1, Q9P202 = target: T3, DFNB31_1, Q9P202
T3 sequence (Q9P202 135-233, limits assumed, looked up): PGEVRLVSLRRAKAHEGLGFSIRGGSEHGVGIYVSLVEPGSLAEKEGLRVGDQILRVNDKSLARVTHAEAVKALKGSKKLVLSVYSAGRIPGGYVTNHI

DLG2_2, Q15700 = target: DLG2_2, Q15700
DVL3, Q92997 = target: T4, DVL3, Q92997
T4 sequence (Q92997 244-331, limits assumed, looked up): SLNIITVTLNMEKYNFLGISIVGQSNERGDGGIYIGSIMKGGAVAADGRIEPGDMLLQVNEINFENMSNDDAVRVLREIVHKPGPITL

GORASP1, Q9BQQ3 = target: GORASP1, Q9BQQ3
GORASP2, Q9H8Y8 = target: GORASP2, Q9H8Y8
GRIP1_2, Q9Y3R0 = target: T5, GRIP1_2, Q9Y3R0
T5 sequence (Q9Y3R0 145-248, limits assumed, looked up): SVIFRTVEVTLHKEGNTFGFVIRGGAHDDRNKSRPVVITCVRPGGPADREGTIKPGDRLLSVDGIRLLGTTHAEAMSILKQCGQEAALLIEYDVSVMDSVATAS

GRIP2_3, Q9C0E4 = target: GRIP2_3, Q9C0E4
GRIP2_6, Q9C0E4 = target: GRIP2_6, Q9C0E4
GRIP2_7, Q9C0E4 = target: GRIP2_7, Q9C0E4
HTRA3, P83110 = target: T6, HTRA3, P83110
T6 sequence (P83110 354-453, limits assumed, looked up): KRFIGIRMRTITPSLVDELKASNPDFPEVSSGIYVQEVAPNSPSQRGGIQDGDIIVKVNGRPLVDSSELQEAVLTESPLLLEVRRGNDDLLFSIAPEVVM

Inadl_1, Q8NI35 = target: Inadl_1, Q8NI35
Inadl_4, Q8NI35 = target: Inadl_4, Q8NI35
Inadl_9, Q8NI35 = target: Inadl_9, Q8NI35
LAP2, Q96RT1 = target: LAP2, Q96RT1
LIN7A, O14910 = target: T7, LIN7A, O14910
T7 sequence (O14910 103-200, limits assumed, looked up): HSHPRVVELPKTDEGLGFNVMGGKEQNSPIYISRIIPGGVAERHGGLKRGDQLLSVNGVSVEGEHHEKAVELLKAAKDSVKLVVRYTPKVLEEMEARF

LNX2_2, Q8N448 = target: T8, LNX2_2, Q8N448
T8 sequence (Q8N448 334-432, limits assumed, looked up): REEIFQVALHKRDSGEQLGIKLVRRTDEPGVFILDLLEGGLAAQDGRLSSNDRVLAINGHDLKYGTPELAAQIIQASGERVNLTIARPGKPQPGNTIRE

MAGI1_1, Q96QZ7 = target: MAGI1_1, Q96QZ7
MAGI2_5, Q86UL8 = target: MAGI2_5, Q86UL8
MAGI2_6, Q86UL8 = target: MAGI2_6, Q86UL8
MPDZ_12, O75970 = target: T9, MPDZ_12, O75970
T9 sequence (O75970 1857-1958, limits assumed, looked up): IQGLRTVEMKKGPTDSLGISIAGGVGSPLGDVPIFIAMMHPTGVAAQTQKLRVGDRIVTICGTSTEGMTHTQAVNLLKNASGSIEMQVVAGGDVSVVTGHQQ

NHERF4_4, Q86UT5 = target: NHERF4_4, Q86UT5
PDZD7_3, Q9H5P4 = target: T10, PDZD7_3, Q9H5P4
T10 sequence (Q9H5P4 857-944, limits assumed, looked up): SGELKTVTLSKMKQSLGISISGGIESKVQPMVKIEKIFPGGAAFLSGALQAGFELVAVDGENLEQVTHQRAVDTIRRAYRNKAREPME

PDZRN3_1, Q9UPQ7 = target: T11, PDZRN3_1, Q9UPQ7
T11 sequence (Q9UPQ7 244-349, limits assumed, looked up): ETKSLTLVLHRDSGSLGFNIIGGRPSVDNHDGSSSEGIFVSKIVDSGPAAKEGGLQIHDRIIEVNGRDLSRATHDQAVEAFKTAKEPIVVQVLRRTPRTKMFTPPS

SCRIB_3, Q14160 = target: SCRIB_3, Q14160
TJP2_1, Q9UDY2 = target: TJP2_1, Q9UDY2
TJP2_1, Q9UDY2, sequence (Q9UDY2 24-128): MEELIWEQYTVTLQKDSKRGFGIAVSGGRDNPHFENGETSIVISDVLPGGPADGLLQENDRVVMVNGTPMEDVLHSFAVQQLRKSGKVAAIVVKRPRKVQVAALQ

MAGI2_5, Q86UL8, sequence (Q86UL8 915-1017): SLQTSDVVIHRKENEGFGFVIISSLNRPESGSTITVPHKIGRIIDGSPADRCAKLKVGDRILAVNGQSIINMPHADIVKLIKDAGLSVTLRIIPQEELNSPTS
GRIP2_6, Q9C0E4, sequence (Q9C0E4 648-740): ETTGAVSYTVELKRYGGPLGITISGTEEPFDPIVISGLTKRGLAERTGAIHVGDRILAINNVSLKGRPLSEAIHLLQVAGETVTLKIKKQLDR
NHERF4_4, Q86UT5, sequence (Q86UT5 464-550): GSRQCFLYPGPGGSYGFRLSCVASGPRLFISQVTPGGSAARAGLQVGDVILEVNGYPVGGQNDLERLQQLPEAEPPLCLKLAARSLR
GRIP2_7, Q9C0E4, sequence (Q9C0E4 934-1023): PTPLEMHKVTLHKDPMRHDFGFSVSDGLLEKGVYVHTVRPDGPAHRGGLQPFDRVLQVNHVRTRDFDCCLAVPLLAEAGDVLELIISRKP
Inadl_1, Q8NI35, sequence (Q8NI35 113-229): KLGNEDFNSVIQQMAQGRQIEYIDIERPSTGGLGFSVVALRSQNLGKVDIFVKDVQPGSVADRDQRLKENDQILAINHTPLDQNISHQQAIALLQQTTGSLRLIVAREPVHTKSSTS
DLG2_2, Q15700, sequence (Q15700 189-283): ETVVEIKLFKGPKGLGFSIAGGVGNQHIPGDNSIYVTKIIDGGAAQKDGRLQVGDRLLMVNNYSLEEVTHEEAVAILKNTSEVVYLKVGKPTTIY
GRIP2_3, Q9C0E4, sequence (Q9C0E4 238-339): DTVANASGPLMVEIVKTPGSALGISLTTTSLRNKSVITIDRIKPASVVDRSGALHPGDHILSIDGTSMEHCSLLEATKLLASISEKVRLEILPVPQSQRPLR
Inadl_4, Q8NI35, sequence (Q8NI35 547-651): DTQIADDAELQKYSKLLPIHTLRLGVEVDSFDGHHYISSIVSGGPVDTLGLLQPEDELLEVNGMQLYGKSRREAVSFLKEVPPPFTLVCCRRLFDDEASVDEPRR
MAGI1_1, Q96QZ7, sequence (Q96QZ7 1-106): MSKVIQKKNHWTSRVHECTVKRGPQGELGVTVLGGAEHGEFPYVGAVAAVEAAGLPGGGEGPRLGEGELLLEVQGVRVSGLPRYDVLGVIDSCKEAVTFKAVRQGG
LAP2, Q96RT1, sequence (Q96RT1 other isoform, or with tags, fused parts or gaps): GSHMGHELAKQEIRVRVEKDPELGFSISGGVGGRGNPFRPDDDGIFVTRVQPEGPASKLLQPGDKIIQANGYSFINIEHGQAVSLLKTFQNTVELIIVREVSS
GORASP1, Q9BQQ3, sequence (Q9BQQ3 1-208): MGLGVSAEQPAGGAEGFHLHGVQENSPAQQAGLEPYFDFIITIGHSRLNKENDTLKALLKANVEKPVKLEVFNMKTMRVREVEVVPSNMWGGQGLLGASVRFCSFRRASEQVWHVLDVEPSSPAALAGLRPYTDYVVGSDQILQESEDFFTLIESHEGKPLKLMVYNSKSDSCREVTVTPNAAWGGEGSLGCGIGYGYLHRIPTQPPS
Inadl_9, Q8NI35, sequence (Q8NI35 1530-1615): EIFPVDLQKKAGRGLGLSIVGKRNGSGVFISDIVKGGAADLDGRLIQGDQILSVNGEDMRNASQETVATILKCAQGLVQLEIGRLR
SCRIB_3, Q14160, sequence (Q14160 999-1103): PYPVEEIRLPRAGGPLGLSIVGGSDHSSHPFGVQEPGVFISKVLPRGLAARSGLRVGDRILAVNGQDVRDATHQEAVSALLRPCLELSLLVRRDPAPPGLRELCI
MAGI2_6, Q86UL8, sequence (Q86UL8 1141-1229): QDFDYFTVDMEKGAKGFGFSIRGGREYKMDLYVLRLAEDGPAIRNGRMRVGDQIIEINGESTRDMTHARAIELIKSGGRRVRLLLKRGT

B1: JAM3, Q9BX67 (peptide)
chain: DFRHKSSFVI
pKd (APBA3_1, O96018): below the threshold
pKd (CARD11, Q9BXL7): below the threshold
pKd (DFNB31_1, Q9P202): below the threshold
pKd (DLG2_2, Q15700): below the threshold
pKd (DVL3, Q92997): below the threshold
pKd (GORASP1, Q9BQQ3): 4.82
pKd (GORASP2, Q9H8Y8): 5.21
pKd (GRIP1_2, Q9Y3R0): below the threshold
pKd (GRIP2_3, Q9C0E4): below the threshold
pKd (GRIP2_6, Q9C0E4): 4.05
pKd (GRIP2_7, Q9C0E4): below the threshold
pKd (HTRA3, P83110): 3.89
pKd (Inadl_1, Q8NI35): below the threshold
pKd (Inadl_4, Q8NI35): below the threshold
pKd (Inadl_9, Q8NI35): below the threshold
pKd (LAP2, Q96RT1): below the threshold
pKd (LIN7A, O14910): below the threshold
pKd (LNX2_2, Q8N448): 4.15
pKd (MAGI1_1, Q96QZ7): below the threshold
pKd (MAGI2_5, Q86UL8): below the threshold
pKd (MAGI2_6, Q86UL8): below the threshold
pKd (MPDZ_12, O75970): 3.49
pKd (NHERF4_4, Q86UT5): below the threshold
pKd (PDZD7_3, Q9H5P4): 4.85
pKd (PDZRN3_1, Q9UPQ7): below the threshold
pKd (SCRIB_3, Q14160): below the threshold
pKd (TJP2_1, Q9UDY2): below the threshold

B2: ADRB1, P08588 (peptide)
chain: RPGFASESKV
pKd (APBA3_1, O96018): below the threshold
pKd (CARD11, Q9BXL7): below the threshold
pKd (DFNB31_1, Q9P202): 4.21
pKd (DLG2_2, Q15700): 3.87
pKd (DVL3, Q92997): below the threshold
pKd (GORASP1, Q9BQQ3): below the threshold
pKd (GORASP2, Q9H8Y8): below the threshold
pKd (GRIP1_2, Q9Y3R0): below the threshold
pKd (GRIP2_3, Q9C0E4): below the threshold
pKd (GRIP2_6, Q9C0E4): below the threshold
pKd (GRIP2_7, Q9C0E4): below the threshold
pKd (HTRA3, P83110): below the threshold
pKd (Inadl_1, Q8NI35): below the threshold
pKd (Inadl_4, Q8NI35): below the threshold
pKd (Inadl_9, Q8NI35): 3.47
pKd (LAP2, Q96RT1): 3.95
pKd (LIN7A, O14910): below the threshold
pKd (LNX2_2, Q8N448): below the threshold
pKd (MAGI1_1, Q96QZ7): below the threshold
pKd (MAGI2_5, Q86UL8): below the threshold
pKd (MAGI2_6, Q86UL8): below the threshold
pKd (MPDZ_12, O75970): below the threshold
pKd (NHERF4_4, Q86UT5): below the threshold
pKd (PDZD7_3, Q9H5P4): 3.71
pKd (PDZRN3_1, Q9UPQ7): 3.92
pKd (SCRIB_3, Q14160): 3.49
pKd (TJP2_1, Q9UDY2): below the threshold

B3: MAP7D2, Q96T17 (peptide)
chain: GQETPLNTFC
pKd (APBA3_1, O96018): below the threshold
pKd (CARD11, Q9BXL7): below the threshold
pKd (DFNB31_1, Q9P202): below the threshold
pKd (DLG2_2, Q15700): below the threshold
pKd (DVL3, Q92997): below the threshold
pKd (GORASP1, Q9BQQ3): 3.61
pKd (GORASP2, Q9H8Y8): below the threshold
pKd (GRIP1_2, Q9Y3R0): below the threshold
pKd (GRIP2_3, Q9C0E4): below the threshold
pKd (GRIP2_6, Q9C0E4): below the threshold
pKd (GRIP2_7, Q9C0E4): below the threshold
pKd (HTRA3, P83110): 4.55
pKd (Inadl_1, Q8NI35): below the threshold
pKd (Inadl_4, Q8NI35): below the threshold
pKd (Inadl_9, Q8NI35): below the threshold
pKd (LAP2, Q96RT1): below the threshold
pKd (LIN7A, O14910): below the threshold
pKd (LNX2_2, Q8N448): below the threshold
pKd (MAGI1_1, Q96QZ7): below the threshold
pKd (MAGI2_5, Q86UL8): below the threshold
pKd (MAGI2_6, Q86UL8): below the threshold
pKd (MPDZ_12, O75970): below the threshold
pKd (NHERF4_4, Q86UT5): below the threshold
pKd (PDZD7_3, Q9H5P4): 4.29
pKd (PDZRN3_1, Q9UPQ7): below the threshold
pKd (SCRIB_3, Q14160): below the threshold
pKd (TJP2_1, Q9UDY2): below the threshold

B4: PKP4, Q99569 (peptide)
chain: QYPGSPDSWV
pKd (APBA3_1, O96018): 3.63
pKd (CARD11, Q9BXL7): below the threshold
pKd (DFNB31_1, Q9P202): 4.28
pKd (DLG2_2, Q15700): 4.03
pKd (DVL3, Q92997): 3.93
pKd (GORASP1, Q9BQQ3): 3.79
pKd (GORASP2, Q9H8Y8): 4.39
pKd (GRIP1_2, Q9Y3R0): below the threshold
pKd (GRIP2_3, Q9C0E4): below the threshold
pKd (GRIP2_6, Q9C0E4): 3.51
pKd (GRIP2_7, Q9C0E4): 3.96
pKd (HTRA3, P83110): 5.54
pKd (Inadl_1, Q8NI35): below the threshold
pKd (Inadl_4, Q8NI35): below the threshold
pKd (Inadl_9, Q8NI35): 3.72
pKd (LAP2, Q96RT1): 5.5
pKd (LIN7A, O14910): below the threshold
pKd (LNX2_2, Q8N448): 4.69
pKd (MAGI1_1, Q96QZ7): below the threshold
pKd (MAGI2_5, Q86UL8): below the threshold
pKd (MAGI2_6, Q86UL8): 5.4
pKd (MPDZ_12, O75970): 4.69
pKd (NHERF4_4, Q86UT5): below the threshold
pKd (PDZD7_3, Q9H5P4): 4.11
pKd (PDZRN3_1, Q9UPQ7): 3.77
pKd (SCRIB_3, Q14160): 4.48
pKd (TJP2_1, Q9UDY2): 4.25

B5: UQCRC2, P22695 (peptide)
chain: LGHTPFVDEL
pKd (APBA3_1, O96018): below the threshold
pKd (CARD11, Q9BXL7): 3.53
pKd (DFNB31_1, Q9P202): 3.5
pKd (DLG2_2, Q15700): below the threshold
pKd (DVL3, Q92997): below the threshold
pKd (GORASP1, Q9BQQ3): below the threshold
pKd (GORASP2, Q9H8Y8): below the threshold
pKd (GRIP1_2, Q9Y3R0): below the threshold
pKd (GRIP2_3, Q9C0E4): below the threshold
pKd (GRIP2_6, Q9C0E4): below the threshold
pKd (GRIP2_7, Q9C0E4): below the threshold
pKd (HTRA3, P83110): below the threshold
pKd (Inadl_1, Q8NI35): below the threshold
pKd (Inadl_4, Q8NI35): below the threshold
pKd (Inadl_9, Q8NI35): below the threshold
pKd (LAP2, Q96RT1): below the threshold
pKd (LIN7A, O14910): 3.53
pKd (LNX2_2, Q8N448): below the threshold
pKd (MAGI1_1, Q96QZ7): below the threshold
pKd (MAGI2_5, Q86UL8): 3.47
pKd (MAGI2_6, Q86UL8): below the threshold
pKd (MPDZ_12, O75970): below the threshold
pKd (NHERF4_4, Q86UT5): below the threshold
pKd (PDZD7_3, Q9H5P4): below the threshold
pKd (PDZRN3_1, Q9UPQ7): below the threshold
pKd (SCRIB_3, Q14160): below the threshold
pKd (TJP2_1, Q9UDY2): below the threshold
